From paper doi:10.1101/2020.07.03.182295 (bioRxiv, 2020) come the findings set out here.

The data set deals with the molecule itself. In words: SEC. (In general: Size exclusion chromatography separates by hydrodynamic size, large species first.)

B1: R54C αA-crystallin (recombinant human) (natural protein)
chain: MDVTIQHPWFKRTLGPFYPSRLFDQFFGEGLFEYDLLPFLSSTISPYYRQSLFCTVLDSGISEVRSDRDKFVIFLDVKHFSPEDLTVKVQDDFVEIHGKHNERQDDHGYISREFHRRYRLPSNVDQSALSCSLSADGMLTFCGPKIQTGLDATHAERAIPVSREEKPTSAPSS
For B1, the binding result is “binds”.
